Measured values as given in PMC7997285.

Biological target: human IRAK1 fused to the N-terminal Nanoluc fragment N67 (human) (UniProt P51617)
Experiment: split reporter (BiFC, NanoBiT)

Substance	fold Nanoluc activity over control reactions [fold]
CHIKV capsid protein fused to the C-terminal Nanoluc fragment C67 (from UniProt Q8JUX5) (natural protein)	> 10
RRV capsid protein fused to the C-terminal Nanoluc fragment C67 (natural protein)	> 10
SINV capsid protein fused to the C-terminal Nanoluc fragment C67 (from UniProt P03316) (natural protein)	12
